Laboratory results: the DeepSol protein solubility set

Experiment: soluble on expression in E. coli; label from the status in PepcDB or PDB records

Row | Sequence | soluble on expression in E. coli
1 | MITIDGNGAVASVAFRTSEVIAIYPITPSSTMAEQADAWAGNGLKNVWGDTPRVVEMQSEAGAIATVHGALQTGALSTSFTSSQGLLLMIPTLYKLAGELTPFVLHVAARTVATHALSIFGDHSDVMAVRQTGCAMLCAANVQEAQDFALISQIATLKSRVPFIHFFDGFRTSHEINKIVPLADDTILDLMPQVEIDAHRARALNPEHPVIRGTSANPDTYFQSREATNPWYNAVYDHVEQAMNDFSAATGRQYQPFEYYGHPQAERVIILMGSAIGTCEEVVDELLTRGEKVGVLKVRLYRPFSAKHLLQALPGSVRSVAVLDRTKEPGAQAEPLYLDVMTALAEAFNNGERETLPRVIGGRYGLSSKEFGPDCVLAVFAELNAAKPKARFTVGIYDDVTNLSLPLPENTLPNSAKLEALFYGLGSDGSVSATKNNIKIIGNSTPWYAQGYFVYDSKKAGGLTVSHLRVSEQPIRSAYLISQADFVGCHQLQFIDKYQMAERLKPGGIFLLNTPYSADEVWSRLPQEVQAVLNQKKARFYVINAAKIARECGLAARINTVMQMAFFHLTQILPGDSALAELQGAIAKSYSSKGQDLVERNWQALALARESVEEVPLQPVNPHSANRPPVVSDAAPDFVKTVTAAMLAGLGDALPVSALPPDGTWPMGTTRWEKRNIAEEIPIWKEELCTQCNHCVAACPHSAIRAKVVPPEAMENAPASLHSLDVKSRDMRGQKYVLQVAPEDCTGCNLCVEVCPAKDRQNPEIKAINMMSRLEHVEEEKINYDFFLNLPEIDRSKLERIDIRTSQLITPLFEYSGACSGCGETPYIKLLTQLYGDRMLIANATGCSSIYGGNLPSTPYTTDANGRGPAWANSLFEDNAEFGLGFRLTVDQHRVRVLRLLDQFADKIPAELLTALKSDATPEVRREQVAALRQQLNDVAEAHELLRDADALVEKSIWLIGGDGWAYDIGFGGLDHVLSLTENVNILVLDTQCYSNTGGQASKATPLGAVTKFGEHGKRKARKDLGVSMMMYGHVYVAQISLGAQLNQTVKAIQEAEAYPGPSLIIAYSPCEEHGYDLALSHDQMRQLTATGFWPLYRFDPRRADEGKLPLALDSRPPSEAPEETLLHEQRFRRLNSQQPEVAEQLWKDAAADLQKRYDFLAQMAGKAEKSNTD | soluble
2 | MITLPTGTKIWIIAGITDMRCGFNGLASKVQNTLKDDPFSGHIFVFRGRSGKMVKILWADRDGLCLFAKRLAGDPGRESAPDASSVIHATGGDRVATSQTDRTAWHPDITRDKTRE | not soluble
3 | MITTQDKELLAKKGITEAQIAEQLACFQTGFPYLKLDAAASIEKGILAPDAEEKNAYLAAWDAYKNTDKIIVKFVPASGAASRMFKNLFEFLSAEYDKPTTKFEQAFFDGIKDFAFYDDLNVACQRTAGKDIPGLMEEGNYKAVVAALLETAGLNYGALPKGLLKFHKYPEGSRTPLEEHLAEGAMYAAGKSGKVNVHFTVSTEHRELFKKLVEEKAEAFGKRYGVDYYITFSEQKPNTDTIAADMDNQPFRDNGKLLFRPGGHGALIENLNDLDADIIFIKNIDNVVPDKLKADTVTYKKLIAGVLVSLQKKAFEYLELLDSGKYTHEQIMEILQFLQKQLFCKNPETKNLEDAELVIYLKNKLNRPMRVCGMVKNVGEPGGGPFLAYNSDGTISLQILESSQIDMNDPAKKEMFEKGTHFNPVDLVCAVRDYKGHKFDLVKYVDKATGFISYKSKNGKDLKALELPGLWNGAMSDWNTVFVEVPLTTFNPVKTVNDLLREQHQ | not soluble
4 | MITVPHSRKVELDEIDRAILRLLQEDGRMSYSEISRRINVPESTVRARVNRLVKEGVIRKFAALINPFKAGYEIVAFIAVDAEPAKVKQVVEELAKFPEVDVLGIVTGAHDIFMQVTVKDLQELERFILEKMAKIDGIKSTETSILTSVKKWGYARVF | soluble
5 | MIVAFCLYKYFPFGGLQRDFMRIASTVAARGHHVRVYTQSWEGDCPKAFELIQVPVKSHTNHGRNAEYYAWVQNHLKEHPADRVVGFNKMPGLDVYFAADVCYAEKVAQEKGFLYRLTSRYRHYAAFERATFEQGKSTKLMMLTDKQIADFQKHYQTEPERFQILPPGIYPDRKYSEQIPNSREIYRQKNGIKEQQNLLLQVGSDFGRKGVDRSIEALASLPESLRHNTLLFVVGQDKPRKFEALAEKLGVRSNVHFFSGRNDVSELMAAADLLLHPAYQEAAGIVLLEAITAGLPVLTTAVCGYAHYIADANCGTVIAEPFSQEQLNEVLRKALTQSPLRMAWAENARHYADTQDLYSLPEKAADIITGGLDG | soluble
6 | MIVIKPFILACLIVKKRKDILGKCLYSLESIGGEIIIVDNGSTDKKKEIAQKLTDKVYDFKWMNNFVEARNFAASKVSGTWIIAVDADECIDINNFVAAMEEIKSYKDKISIFLVEIMSFVGDNGEEITVNTMARLYKNDGSVYFLWWNV | not soluble
7 | MIVSMKKLAQLLLPLLLPFSAEAGGQPDFCKSINHAGGRYTVCSFDPAKNTIRIYDQDHVSGQGYRNFADLSSALWRQHMFSVFAMNGGMYHSDYSPVGLFVENGVERSPVSTRGGWGNFHLLPNGVFYLDGNTAGVLETEAYLAADPKPDFATQSGPMLVIDGKLHPRFLPDSDSLKRRNGVGVSRDGMVHFAISETTVRFYDFGTLFRDVLDAPNALYLDGTISSVDIPAMNRRDQLFSMGPIIAVVDRVPDLEHHHHHH | not soluble
8 | MIVTVTMNPSIDISYLLDHLKLDTVNRTSQVTKTPGGKGLNVTRVIHDLGGDVIATGVLGGFHGAFIANELKKANIPQAFTSIKEETRDSIAILHEGNQTEILEAGPTVSPEEISNFLENFDQLIKQAEIVTISGSLAKGLPSDFYQELVQKAHAQEVKVLLDTSGDSLRQVLQGPWKPYLIKPNLEELEGLLGQDFSENPLAAVQTALTKPMFAGIEWIVISLGKDGAIAKHHDQFYRVKIPTIQAKNPVGSGDATIAGLAYGLAKDAPAAELLKWGMAAGMANAQERMTGHVDVENVKKHLMNIQVVEIAK | not soluble
9 | MIYAGILAGGTGTRMGISNLPKQFLELGDRPILIHTIEKFVLEPSIEKIVVGVHGDWVSHAEDLVDKYLPLYKERIIITKGGADRNTSIKNIIEAIDAYRPLTPEDIVVTHDSVRPFITLRMIQDNIQLAQNHDAVDTVVEAVDTIVESTNGQFITDIPNRAHLYQGQTPQTFRCKDFMDLYGSLSDEEKEILTDACKIFVIKGKDVALAKGEYSNLKITTVTDLKIAKSMIEKD | soluble
10 | MIYIIGSGIAGLSAGVALRRAGKKVTLISKRIDGGSTPIAKGGVAASVGSDDSPELHAQDTIRVGDGLCDVKTVNYVTSEAKNVIETFESWGFEFEEDLRLEGGHTKRRVLHRTDETGREIFNFLLKLAREEGIPIIEDRLVEIRVKDGKVTGFVTEKRGLVEDVDKLVLATGGYSYLYEYSSTQSTNIGDGMAIAFKAGTILADMEFVQFHPTVTSLDGEVFLLTETLRGEGAQIINENGERFLFNYDKRGELAPRDILSRAIYIEMLKGHKVFIDLSKIEDFERKFPVVAKYLARHGHNYKVKIPIFPAAHFVDGGIRVNIRGESNIVNLYAIGEVSDSGLHGANRLASNSLLEGLVFGINLPRYVDSSWEGISTDDGIVHSVRISGNKTLSLKEIRRINWENVGIIRNEEKLVKAINTYSSSTQNEAIISYLTALAAEIRKESRGNHFREDYPYKDPNWEKRIYFKLVV | soluble
11 | MIYKACIRKRCGGVCVGEELKPEKIQEIRLGDCPICGGKGTLKAIQFIHRIPYFGEVMESTVVCERCGYRNSDVIILEEREPRLYEVKVEEEKDLFIRVVRSKSGTIELEELGIKIEPGPAAEGFVSNIEGVLERAKEVLLMARDFKEQENDREAVRRIDELLKYIEEVKEGKKPLTVRIMDPFGNSALIGEKVKSRKLTKEEIRKLSKGPYIVIEPDEVPQQLEHHHHHH | not soluble
12 | MIYSIPFLFFIIVSCSNSSTEMVAKSKYDAKIAEYKELNEQQAAVIEDNLEKSKIINNVVTELNQIAGNTHSLRVNVEHGVGELSQAEEINQKLQTLKKRLSAVEGKRSDGSKNLLATMDKLKSIIEQKEIEINNLKQEIANQQQTIANQKNTIASQQVTIDAQSQELMNKQQEMWYKLGTELHSVVEELPKVKGRKDKRNIKNTRYYILNKAKECFEHAAQLGHSLAGSKARQVEGEMSRL | not soluble
13 | MKAASYGVPFQSHFGLISTIRGNDGLPRVVVFFQSHFGLISTVKIVEVLEKDEALSIPFWSDFNCHLQMDQRIRLAFFQSHFGLISTGTLQTSGTNANFLSIPFWSDFNLELLKRIKKTKMLFQSHFGLISTRNMVWGRSELQRAIFQSHFGLISTQSSQLTMPVKMQTFNPILV | not soluble
14 | MKADIARCAYMHAHGGFYFDTDYKLLRPLDAQVLSQHCVLPVEEGAPGQEDFKIGNAVFGSEPGHPFWRAFIEHIFTAHAPETLQDHREIPMISGPRGLTRFYNAHGGQFADILFPPRDAFHPDRTWFGLGHRGGKSAVGSHLCWASWRGKSPRRALTNYLRRKLNAVPILEHHHHHH | not soluble
15 | MKAEYLQRFGGIARLYGQSALRSFSQAKVCVVGIGGVGSWAAEALARAGINQITLIDMDDICITNTNRQIHAMQGTVGRLKTEVMAERIRAINPDCEVIEVDDFVTADNLAEHIKREFDYVVDAIDSVKAKVALIAFCKRNKIPVIVAGGAGGQMDPTQITVADLAKTIQDPLAAKVRSDLRRLHNFSKNPARKFGVECVFSTEQLSYPDGNGGTCQAKAASDGNMKMDCASGFGAVTPVTATFGLVAASRVLKKIAERGARAEKEAGNEEAGSIGEA | soluble
16 | MKAFSSYDEKPPAPPIRFSSSATRENQVVGLKPLPKEPEATKKKKTMPNPFMKKNKDKKEASEKPVISRPSNFEHTIHVGYDPKTGEFTGMPEAWARLLTDSQISKQEQQQNPQAVLDALKYYTQGESSGQKWLQYDMNDAPSRTPSYGLKPQPYSTSSLPYHGNKIQDPRKMNPMTTSTSSAGYNSKQGVPPTTFSVNENRSSMPPSYAPPPVPHGETPADIVPPAIPDRPARTLSIYTKPKEEEEKIPDLSKGQFGVQARGQKAKKKMTDAEVLTKLRTIVSIGNPDRKYRKVDKIGSGASGSVYTAIEISTEAEVAIKQMNLKDQPKKELIINEILVMRENKHANIVNYLDSYLVCDELWVVMEYLAGGSLTDVVTECQMEDGIIAAVCREVLQALEFLHSRHVIHRDIKSDNILLGMDGSVKLTDFGFCAQLSPEQRKRTTMVGTPYWMAPEVVTRKQYGPKVDVWSLGIMAIEMVEGEPPYLNENPLRAIYLIATNGKPDFPGRDSMTLLFKDFVDSALEVQVENRWSASQLLTHPFLRCAKPLASLYYLIVAAKKSIAEASNS | not soluble
17 | MKAIVTLNTTGAQLSVPASSRNLLETLEYHQVPVEYQCRSGYCGSCRMRLLKGEVCYLQQPLAFIQAGEILPCCCQPKGNIEIEF | not soluble
18 | MKANANAFYAINGNSVIDFKESSKAKDVCEFLGRIKEENEYDPIVVLDNSKTHHADITIKKAKQLDITLVFLPPYSPDLNPIEFIWKSVRKEILKEFIESVTQLRDLIKNEYMKLAKSKSFANNWMKIFDEQIKSVMNSLEHHHHHH | not soluble
19 | MKAYLHVASGKTFSGELAAPLEEKVSGEIVFFTGMTGYQEVLTDPSYKNQIIVFTYPLIGNYGINENDFESKRPHVEAVVVYEASREGFHYGAKYSLAEYLQHWNIPLLTHVDTRALVKEIRTAGTMMAELSLSPISAVGGEEAVFPVRAVSTKTIETYGEGGPHLVLVDFGYKKSILQSLLARGCRVTVVPHDTTPEAIDALKPDGLVLSNGPGDPKQLRHQLPAIRQLIDRYPTLAICLGHQLVALAYGADTEKLRFGHRGANQPVWDAVKQNVMMTSQNHSYVVKEGSLVGKPFDIRFINVNDGSVEGIVHRHKPILSVQYHPEAHPGPHDTGYIFDEFLQTVFKGENVYA | soluble
20 | MKAYQRYRFPSLRSVARDASARDSAALAAEAQCADIDARIEEGFRQGREDGYRDGFEHGEAEGMKQGREAGFAAGAQQARDALRSEYAGIAKTLDAMRDAFVRVQAEYLAARRTELVDVVAKVAKQVIRCELTLQPSQMAALIEETLGTMPASSDAPEVHLSPDDHERLAGLLPERARHWRLVPDARLEAGECRVLLGGNEADAGCQHRLDACVERIGEQLPGAPDVEAAAT | not soluble
